Measured values reported in patent US20240076386A1 (Pfizer, published 2024).
One block for each binder: values may come before it.

Tests used:
[1] = biological target: T1, human E-selectin, cell-surface expressed (human, UniProt P16581 22-610); experiment: competition ELISA on CHO cells vs sialyl Lewis ligand, further assays
T1 construct: also called CHO-human E-selectin cells; human CHO-E
T1 sequence: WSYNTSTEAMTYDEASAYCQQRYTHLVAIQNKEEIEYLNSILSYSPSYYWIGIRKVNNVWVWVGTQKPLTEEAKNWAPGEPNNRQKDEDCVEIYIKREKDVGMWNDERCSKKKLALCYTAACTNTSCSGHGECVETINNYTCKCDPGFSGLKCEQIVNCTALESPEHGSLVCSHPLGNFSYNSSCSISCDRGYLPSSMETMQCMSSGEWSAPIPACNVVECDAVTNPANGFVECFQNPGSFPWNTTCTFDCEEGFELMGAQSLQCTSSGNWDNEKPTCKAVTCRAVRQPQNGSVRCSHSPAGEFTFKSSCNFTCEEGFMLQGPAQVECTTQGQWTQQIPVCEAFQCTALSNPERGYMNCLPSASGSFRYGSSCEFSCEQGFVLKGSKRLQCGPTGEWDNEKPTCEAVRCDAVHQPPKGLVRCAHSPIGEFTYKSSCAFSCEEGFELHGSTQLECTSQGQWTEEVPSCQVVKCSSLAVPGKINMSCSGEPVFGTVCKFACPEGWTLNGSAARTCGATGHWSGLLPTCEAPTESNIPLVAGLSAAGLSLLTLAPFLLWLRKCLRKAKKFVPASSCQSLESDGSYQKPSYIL
Description: CHO cells expressing E-selectin were seeded at 12,500 cells per well into a 96 well tissue culture plate and incubated at 37° C., 5% CO₂ for 48 hours to form a confluent monolayer. Plates were subsequently washed twice with 200 μL of calcium magnesium free PBS. Anti-E-selectin antibodies or an IgG1 isotype control (IgG control) were added to the assay in the presence of a small synthetic conjugate of biotinylated, sialyl Lewis A polyacrylamide (Carbosynth LLC, OS45446) or sialyl Lewis X polyacrylamide (Glycotech, 01-045) with streptavidin/horseradish peroxidase (100 μL total) and incubated at 37° C., 5% CO₂ for 2 hours. Plates were then washed twice with 200 μL of calcium and magnesium free PBS. Following the incubation, the cells were washed twice with 200 μL of wash buffer containing 2 mM of calcium chloride (50 mM TRIS [trisaminomethane], 150 mM sodium chloride; 0.05% polysorbate 20, pH 7.4; 2 mM calcium chloride). Signal was developed by adding 100 μL of 1-Step Ultra TMB substrate (Thermo Scientific, 34028) and incubating for 30 minutes at room temperature. Reactions were stopped using 2 M of sulfuric acid and absorbance was read at 450 nm (Spectramax M5e). Data were analyzed and graphed using GraphPad Prism software (Version 8.0.2).

rabbit E-selectin = biological target: T2, rabbit E-selectin (rabbit, UniProt P27113 24-495, limits assumed); experiment: SPR (BIAcore), single sensorgram per selectin
T2 sequence (looked up): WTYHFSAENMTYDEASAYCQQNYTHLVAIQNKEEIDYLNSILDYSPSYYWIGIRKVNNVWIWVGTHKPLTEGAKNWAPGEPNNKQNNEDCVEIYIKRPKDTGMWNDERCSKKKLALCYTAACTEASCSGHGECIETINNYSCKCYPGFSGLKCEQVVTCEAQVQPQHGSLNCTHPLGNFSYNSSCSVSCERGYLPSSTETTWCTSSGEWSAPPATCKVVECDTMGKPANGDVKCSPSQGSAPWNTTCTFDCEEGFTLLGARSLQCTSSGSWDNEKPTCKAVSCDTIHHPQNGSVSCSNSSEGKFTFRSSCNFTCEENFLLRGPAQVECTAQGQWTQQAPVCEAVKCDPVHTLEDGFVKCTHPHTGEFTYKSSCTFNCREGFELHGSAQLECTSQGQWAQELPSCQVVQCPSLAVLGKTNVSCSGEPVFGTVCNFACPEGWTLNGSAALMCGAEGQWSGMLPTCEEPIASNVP

[2] = biological target: T3, cynomolgus monkey E-selectin extracellular domain with 10 His purification tail (cynomolgus monkey, UniProt P16581 22-554 (human entry)); experiment: AlphaLISA competition vs sialyl Lewis A-PAA-biotin; AlphaLISA neutralization assay (ligand competition), not SPR
T3 construct: also called cynomolgus E-selectin; truncated cynomolgus monkey E-selectin
T3 chain: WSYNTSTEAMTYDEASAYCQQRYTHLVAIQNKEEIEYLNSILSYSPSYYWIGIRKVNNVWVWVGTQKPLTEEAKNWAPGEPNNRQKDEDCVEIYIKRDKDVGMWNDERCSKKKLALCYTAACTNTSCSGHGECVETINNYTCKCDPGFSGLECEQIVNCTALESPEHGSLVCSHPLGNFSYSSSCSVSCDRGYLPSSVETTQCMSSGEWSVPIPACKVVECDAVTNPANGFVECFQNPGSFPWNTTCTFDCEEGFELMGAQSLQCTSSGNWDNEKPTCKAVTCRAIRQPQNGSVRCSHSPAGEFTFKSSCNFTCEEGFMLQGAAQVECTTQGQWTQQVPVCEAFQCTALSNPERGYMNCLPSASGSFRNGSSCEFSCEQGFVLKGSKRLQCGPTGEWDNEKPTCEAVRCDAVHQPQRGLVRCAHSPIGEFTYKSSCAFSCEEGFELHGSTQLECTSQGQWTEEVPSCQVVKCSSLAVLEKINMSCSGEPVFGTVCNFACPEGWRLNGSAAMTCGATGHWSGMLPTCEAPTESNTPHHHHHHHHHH
Description: The neutralization ability of anti-E-selectin antibodies was measured in an AlphaLISA homogenous competition assay. […] This was incubated at room temperature for 15 minutes, followed by addition of 1.4 μL of human, mouse or cynomolgus monkey E-selectin added to a final concentration of 7 nM. This was again incubated at room temperature for 15 minutes. To this, 1.4 μL AlphaLISA beads was added (Ni-donor/SA-acceptor) for a final assay concentration of 10 μg/mL. This was incubated in the dark at room temperate for at least 10 hours. The plates were then read using the AlphaLISA protocol (Envision).

IC50 [1]: 2.33 nM
binding result (rabbit E-selectin): no binding
B1: optimized anti-E-selectin antibody 1444 (antibody, human IgG1, kappa, V domains shown)
VH: EVQLVESGGGLVQPGGSLRLSCAASGYAIRSAYMHWVRQAPGKGLEWVARIDPANGNTIYVDSVTGRFTISADNAKNSAYLQMNSLRAEDTAVYYCAMDLYSTSEYWGQGTLVTVSS
VL: DIQMTQSPSSLSASVGDRVTITCKTSQNIERYLNWYQQKPGKAPKLLIYAASSLQSGVPSRFSGSGSGTDFTLTISSLQPEDFATYFCLQDNAWPLTFGQGTKVEIKR
notes: effector-null human IgG1, kappa

EC50 [2]: < 1 nM
B2: anti-E-selectin antibody 0158 chimera (antibody, human IgG1, kappa, V domains shown)
VH: QVQLKESGPGLVQPSETLSLTCTVSGFSISTYNVHWLRQPPGKGLEWMGMMWSGGSPDYNSALKSRLSISRDTSKNQVFLKMNSLQSEDTTTYYCARWGGGFDYWGQGVMVTVSS
VL: DIVLTQSPTTLSVTPGETVSLSCRASHSIGTNLHWYQQKTNESPRLLIKFTSQSISGIPSRFSASGSGTDFTLNINNVEFDDVSSYFCQQTQSWPLTFGSGTKLEIKR
notes: rat VH/VL on effector-null human IgG1 and human kappa
